Experimental data taken from patent US20220306695A1, “COMPSTATIN ANALOGUES AND THEIR MEDICAL USES” (priority 2019, published 2022).
Starred links: 1 amine or outer side, 2 acyl side, 3 side chain; linkers in the order of their positions; H or OH if unused. Positions of bridges follow the written chain, without caps; N, C: chain ends. Non-standard residues stand in square brackets, D forms with d. Groups on a side chain read outwards from the residue. *: point of attachment. Trp(1-Me) = Cn1cc(C[C@H](N)C(=O)O)c2ccccc21; C18 diacid = O=C(O)CCCCCCCCCCCCCCCCC(=O)*; C16 diacid = O=C(O)CCCCCCCCCCCCCCC(=O)*; γGlu = O=C(O)[C@H](CCC(=O)[*:2])N[*:1]; hCys = N[C@@H](CCS)C(=O)O; AEEA = NCCOCCOCC(=O)O; Sar = CNCC(=O)O

Legend:
Human C3 [1] = target: T1, Human C3 (human, UniProt P01024 23-1663); experiment: cell-based or functional assay
Human C3 [2] = target: T1, Human C3; experiment: SPR, C3 immobilised
Protocol: Surface plasmon resonance (SPR) was used to characterize peptides with respect to their binding affinity (Kd) for C3. Human C3 (Complement tech cat #A1 13c) was immobilised on individual flow cells of CM5 sensor chips (GE Healthcare) using standard amine coupling to a density of approximately 3000 resonance units (RU) in a buffer consisting of 10 mM phosphate pH 7.4, 150 mM NaCl, 0.05% Tween20.
For interaction experiments a multi-cycle experiment approach was used and performed using either a Biacore™ T200 or Biacore™ X100 instrument (GE Healthcare) at 25° C. Peptides were injected in increasing concentration series (5-8 different concentrations) for 60-120 s at a flow rate of 30 μL/min in a buffer consisting of 10 mM Tris buffer at pH 7.4, with 150 mM NaCl and 0.05% Tween20. This was followed by a dissociation period for up to 10 min. The C3 surface was regenerated between runs by a 45 s injection of 3 M MgCl₂.
Sensorgrams were double-referenced (reference surface, blanks) prior to analysis of the kinetic profiles by globally fitting data to a 1:1 Langmuir binding model to obtain association and dissociation rates for calculation of the equilibrium dissociation constant Kd. Each peptide was tested at in at least 2 independent experiments.

T1 sequence (P01024 23-1663 limits assumed): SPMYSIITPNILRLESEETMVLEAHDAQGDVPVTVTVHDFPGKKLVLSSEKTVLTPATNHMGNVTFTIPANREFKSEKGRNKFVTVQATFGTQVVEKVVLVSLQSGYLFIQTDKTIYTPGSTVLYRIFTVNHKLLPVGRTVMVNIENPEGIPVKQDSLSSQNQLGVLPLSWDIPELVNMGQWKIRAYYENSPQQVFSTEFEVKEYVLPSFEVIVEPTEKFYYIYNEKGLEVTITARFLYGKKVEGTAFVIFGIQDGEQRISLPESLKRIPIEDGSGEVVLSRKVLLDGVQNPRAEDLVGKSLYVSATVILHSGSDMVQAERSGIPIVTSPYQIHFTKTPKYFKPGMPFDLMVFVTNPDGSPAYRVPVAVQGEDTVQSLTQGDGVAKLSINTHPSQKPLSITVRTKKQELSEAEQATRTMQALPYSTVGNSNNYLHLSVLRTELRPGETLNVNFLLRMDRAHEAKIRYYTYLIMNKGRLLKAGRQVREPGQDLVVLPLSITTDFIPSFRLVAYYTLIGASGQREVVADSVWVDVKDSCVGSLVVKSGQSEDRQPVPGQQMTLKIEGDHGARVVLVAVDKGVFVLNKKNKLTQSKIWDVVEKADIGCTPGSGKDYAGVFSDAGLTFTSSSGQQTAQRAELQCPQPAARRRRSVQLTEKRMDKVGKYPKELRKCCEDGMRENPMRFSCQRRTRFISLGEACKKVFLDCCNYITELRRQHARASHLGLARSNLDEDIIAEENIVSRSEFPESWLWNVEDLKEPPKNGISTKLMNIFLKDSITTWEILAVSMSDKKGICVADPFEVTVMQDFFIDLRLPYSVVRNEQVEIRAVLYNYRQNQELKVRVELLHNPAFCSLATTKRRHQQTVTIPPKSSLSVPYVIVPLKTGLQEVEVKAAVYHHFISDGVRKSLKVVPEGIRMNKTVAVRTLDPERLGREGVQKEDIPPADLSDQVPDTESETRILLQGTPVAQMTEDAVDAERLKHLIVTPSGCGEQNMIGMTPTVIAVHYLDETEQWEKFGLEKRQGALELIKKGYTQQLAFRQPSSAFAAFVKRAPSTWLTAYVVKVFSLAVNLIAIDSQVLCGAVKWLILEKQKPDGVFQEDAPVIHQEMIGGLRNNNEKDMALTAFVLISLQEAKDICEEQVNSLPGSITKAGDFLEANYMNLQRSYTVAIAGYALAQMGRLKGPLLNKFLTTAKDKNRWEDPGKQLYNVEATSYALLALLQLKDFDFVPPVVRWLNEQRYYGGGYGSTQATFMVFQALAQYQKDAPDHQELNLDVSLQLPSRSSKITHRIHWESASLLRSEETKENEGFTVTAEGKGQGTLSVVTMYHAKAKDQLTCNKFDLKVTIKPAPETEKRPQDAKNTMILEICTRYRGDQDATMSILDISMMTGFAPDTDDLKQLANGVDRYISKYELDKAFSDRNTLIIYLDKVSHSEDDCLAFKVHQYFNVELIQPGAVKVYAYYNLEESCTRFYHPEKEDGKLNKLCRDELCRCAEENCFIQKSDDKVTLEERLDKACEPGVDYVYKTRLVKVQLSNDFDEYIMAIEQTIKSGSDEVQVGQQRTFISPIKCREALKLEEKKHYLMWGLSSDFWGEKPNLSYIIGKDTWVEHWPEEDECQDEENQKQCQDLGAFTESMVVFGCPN

| Binder | IC50[nM], inhibition of hemolysis (Human C3 [1]) | Kd (Human C3 [2]) |
| --- | --- | --- |
| Ac-SEFCI[Trp(1-Me)]QDWGEHRC[Sar]EGESESK([γGlu-C18 diacid])-NH2 (disulfide 4-14; SMILES CC[C@H](C)[C@@H]1NC(=O)[C@@H](NC(=O)[C@H](Cc2ccccc2)NC(=O)[C@H](CCC(=O)O)NC(=O)[C@H](CO)NC(C)=O)CSSC[C@@H](C(=O)N(C)CC(=O)N[C@@H](CCC(=O)O)C(=O)NCC(=O)N[C@@H](CCC(=O)O)C(=O)N[C@@H](CO)C(=O)N[C@@H](CCC(=O)O)C(=O)N[C@@H](CO)C(=O)N[C@@H](CCCCNC(=O)CC[C@H](NC(=O)CCCCCCCCCCCCCCCCC(=O)O)C(=O)O)C(N)=O)NC(=O)[C@H](CCCNC(=N)N)NC(=O)[C@H](Cc2c[nH]cn2)NC(=O)[C@H](CCC(=O)O)NC(=O)CNC(=O)[C@H](Cc2c[nH]c3ccccc23)NC(=O)[C@H](CC(=O)O)NC(=O)[C@H](CCC(N)=O)NC(=O)[C@H](Cc2cn(C)c3ccccc23)NC1=O) [Compound 141] | < 100 nM | 6.6 nM |
| Ac-SEFCI[Trp(1-Me)]QDWGEHRCTGAES-NH2 (disulfide 4-14; SMILES CC[C@H](C)[C@@H]1NC(=O)[C@@H](NC(=O)[C@H](Cc2ccccc2)NC(=O)[C@H](CCC(=O)O)NC(=O)[C@H](CO)NC(C)=O)CSSC[C@@H](C(=O)N[C@H](C(=O)NCC(=O)N[C@@H](C)C(=O)N[C@@H](CCC(=O)O)C(=O)N[C@@H](CO)C(N)=O)[C@@H](C)O)NC(=O)[C@H](CCCNC(=N)N)NC(=O)[C@H](Cc2c[nH]cn2)NC(=O)[C@H](CCC(=O)O)NC(=O)CNC(=O)[C@H](Cc2c[nH]c3ccccc23)NC(=O)[C@H](CC(=O)O)NC(=O)[C@H](CCC(N)=O)NC(=O)[C@H](Cc2cn(C)c3ccccc23)NC1=O) [Compound 67] | < 100 nM | 0.68 nM |
| Ac-SEFCI[Trp(1-Me)]QDWGEHRC[Sar]EGE[AEEA]ESK([γGlu-γGlu-C18 diacid])-NH2 (disulfide 4-14) [Compound 140] | < 100 nM | 7.6 nM |
| SEFAIWQDWGEHRCGEGEXESK (not fully specified; N-acetyl; C-terminal amide; delta-cystathionine (Ctt2) thioether bridge A4-hCys14 (hCys written C); W6 is 1-Me-Trp; G10 is Sar; G15 is Sar; X19 is Peg3; K22 side chain bears [17-carboxy-heptadecanoyl][γGlu]G[γGlu]) [Compound 150] | < 100 nM | 0.56 nM |
| Ac-SEFCI[Trp(1-Me)]QDWGEHRCTEGE[AEEA]ESK([γGlu-C18 diacid])-NH2 (disulfide 4-14) [Compound 142] | < 100 nM | 4.8 nM |
| Ac-SEF[hCys]I[Trp(1-Me)]QDWGEHRATEGE[AEEA]ESK([γGlu-C18 diacid])-NH2 (thioether 4-14; SMILES CC[C@H](C)[C@@H]1NC(=O)[C@@H](NC(=O)[C@H](Cc2ccccc2)NC(=O)[C@H](CCC(=O)O)NC(=O)[C@H](CO)NC(C)=O)CCSC[C@@H](C(=O)N[C@H](C(=O)N[C@@H](CCC(=O)O)C(=O)NCC(=O)N[C@@H](CCC(=O)O)C(=O)NCCOCCOCC(=O)N[C@@H](CCC(=O)O)C(=O)N[C@@H](CO)C(=O)N[C@@H](CCCCNC(=O)CC[C@H](NC(=O)CCCCCCCCCCCCCCCCC(=O)O)C(=O)O)C(N)=O)[C@@H](C)O)NC(=O)[C@H](CCCNC(=N)N)NC(=O)[C@H](Cc2c[nH]cn2)NC(=O)[C@H](CCC(=O)O)NC(=O)CNC(=O)[C@H](Cc2c[nH]c3ccccc23)NC(=O)[C@H](CC(=O)O)NC(=O)[C@H](CCC(N)=O)NC(=O)[C@H](Cc2cn(C)c3ccccc23)NC1=O) [Compound 165] | < 250 nM | 20.7 nM |
| Ac-SEFCI[Trp(1-Me)]QDWGEHRCTEGEGGGK([γGlu-Gly-γGlu-C18 diacid])-NH2 (disulfide 4-14; SMILES CC[C@H](C)[C@@H]1NC(=O)[C@@H](NC(=O)[C@H](Cc2ccccc2)NC(=O)[C@H](CCC(=O)O)NC(=O)[C@H](CO)NC(C)=O)CSSC[C@@H](C(=O)N[C@H](C(=O)N[C@@H](CCC(=O)O)C(=O)NCC(=O)N[C@@H](CCC(=O)O)C(=O)NCC(=O)NCC(=O)NCC(=O)N[C@@H](CCCCNC(=O)CC[C@H](NC(=O)CNC(=O)CC[C@H](NC(=O)CCCCCCCCCCCCCCCCC(=O)O)C(=O)O)C(=O)O)C(N)=O)[C@@H](C)O)NC(=O)[C@H](CCCNC(=N)N)NC(=O)[C@H](Cc2c[nH]cn2)NC(=O)[C@H](CCC(=O)O)NC(=O)CNC(=O)[C@H](Cc2c[nH]c3ccccc23)NC(=O)[C@H](CC(=O)O)NC(=O)[C@H](CCC(N)=O)NC(=O)[C@H](Cc2cn(C)c3ccccc23)NC1=O) [Compound 130] | < 100 nM | 4.4 nM |
| Ac-SEFAI[Trp(1-Me)]QDWGEHR[hCys]TEGEGGGK([γGlu-Gly-γGlu-C18 diacid])-NH2 (thioether 4-14; SMILES CC[C@H](C)[C@@H]1NC(=O)[C@@H](NC(=O)[C@H](Cc2ccccc2)NC(=O)[C@H](CCC(=O)O)NC(=O)[C@H](CO)NC(C)=O)CSCC[C@@H](C(=O)N[C@H](C(=O)N[C@@H](CCC(=O)O)C(=O)NCC(=O)N[C@@H](CCC(=O)O)C(=O)NCC(=O)NCC(=O)NCC(=O)N[C@@H](CCCCNC(=O)CC[C@H](NC(=O)CNC(=O)CC[C@H](NC(=O)CCCCCCCCCCCCCCCCC(=O)O)C(=O)O)C(=O)O)C(N)=O)[C@@H](C)O)NC(=O)[C@H](CCCNC(=N)N)NC(=O)[C@H](Cc2c[nH]cn2)NC(=O)[C@H](CCC(=O)O)NC(=O)CNC(=O)[C@H](Cc2c[nH]c3ccccc23)NC(=O)[C@H](CC(=O)O)NC(=O)[C@H](CCC(N)=O)NC(=O)[C@H](Cc2cn(C)c3ccccc23)NC1=O) [Compound 157] | < 100 nM | 3.5 nM |
| Ac-SEFCI[Trp(1-Me)]QDWGEHRC[Sar]EGESESK([γGlu-Gly-γGlu-C18 diacid])-NH2 (disulfide 4-14; SMILES CC[C@H](C)[C@@H]1NC(=O)[C@@H](NC(=O)[C@H](Cc2ccccc2)NC(=O)[C@H](CCC(=O)O)NC(=O)[C@H](CO)NC(C)=O)CSSC[C@@H](C(=O)N(C)CC(=O)N[C@@H](CCC(=O)O)C(=O)NCC(=O)N[C@@H](CCC(=O)O)C(=O)N[C@@H](CO)C(=O)N[C@@H](CCC(=O)O)C(=O)N[C@@H](CO)C(=O)N[C@@H](CCCCNC(=O)CC[C@H](NC(=O)CNC(=O)CC[C@H](NC(=O)CCCCCCCCCCCCCCCCC(=O)O)C(=O)O)C(=O)O)C(N)=O)NC(=O)[C@H](CCCNC(=N)N)NC(=O)[C@H](Cc2c[nH]cn2)NC(=O)[C@H](CCC(=O)O)NC(=O)CNC(=O)[C@H](Cc2c[nH]c3ccccc23)NC(=O)[C@H](CC(=O)O)NC(=O)[C@H](CCC(N)=O)NC(=O)[C@H](Cc2cn(C)c3ccccc23)NC1=O) [Compound 139] | < 100 nM | 7.4 nM |
| Ac-SEYCI[Trp(1-Me)]QEWGEHRC[Sar]EGAK([AEEA-γGlu-AEEA-Gly-γGlu-C18 diacid])-NH2 (disulfide 4-14; SMILES CC[C@H](C)[C@@H]1NC(=O)[C@@H](NC(=O)[C@H](Cc2ccc(O)cc2)NC(=O)[C@H](CCC(=O)O)NC(=O)[C@H](CO)NC(C)=O)CSSC[C@@H](C(=O)N(C)CC(=O)N[C@@H](CCC(=O)O)C(=O)NCC(=O)N[C@@H](C)C(=O)N[C@@H](CCCCNC(=O)COCCOCCNC(=O)CC[C@H](NC(=O)COCCOCCNC(=O)CNC(=O)CC[C@H](NC(=O)CCCCCCCCCCCCCCCCC(=O)O)C(=O)O)C(=O)O)C(N)=O)NC(=O)[C@H](CCCNC(=N)N)NC(=O)[C@H](Cc2c[nH]cn2)NC(=O)[C@H](CCC(=O)O)NC(=O)CNC(=O)[C@H](Cc2c[nH]c3ccccc23)NC(=O)[C@H](CCC(=O)O)NC(=O)[C@H](CCC(N)=O)NC(=O)[C@H](Cc2cn(C)c3ccccc23)NC1=O) [Compound 122] | < 500 nM | 63 nM |
| Ac-SEFAI[Trp(1-Me)]QDWGEHR[hCys][Sar]EGAK([AEEA-γGlu-AEEA-Gly-γGlu-C18 diacid])-NH2 (thioether 4-14; not fully specified) [Compound 154] | < 100 nM | 2.4 nM |
| SEFAIWQDWGEHRCGEXXK (not fully specified; N-acetyl; C-terminal amide; delta-cystathionine (Ctt2) thioether bridge A4-hCys14 (hCys written C); W6 is 1-Me-Trp; G10 is Sar; G15 is Sar; X17 and X18 are Peg3; K19 side chain bears [17-carboxy-heptadecanoyl][γGlu]G[γGlu]) [Compound 147] | < 100 nM | 0.71 nM |
| Ac-SEF[hCys]I[Trp(1-Me)]QDW[Sar]EHRA[Sar]E[AEEA][AEEA]K([γGlu-Gly-γGlu-C18 diacid])-NH2 (thioether 4-14) [Compound 164] | < 100 nM | 6.4 nM |
| Ac-SEFCI[Trp(1-Me)]QDWGEHRC[Sar]EGE[AEEA][AEEA]K([γGlu-Gly-γGlu-C16 diacid])-NH2 (disulfide 4-14) [Compound 127] | < 100 nM | 8.5 nM |
